The supplement of paper PMC10567573

B1: SNX8 (parent)
chain: RMVPALPPKRMLGADREFIEARRR
B2: PHTF1 (parent)
chain: RVKLISNKGTETDNDPSCVHPIIK

Variants of: B1
Test: protein stability index of a GFP-peptide fusion (GPS, HEK-293T) (PSI 1-6); higher = more stable
Conditions: c terminus: a fixed tail appended
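Also: lentivirally expressed fusions sorted by FACS into six bins by GFP to DsRed ratio, PSI derived from sequencing read proportions per bin multiplied by bin number.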

Protein stability index: each site, then its substitutions
L12: A 4.53, E 5.11, C 3.91
P4: M 3.1, I 2.52, H 3.09, F 2.98, G 3.87, V 3.58
P8: Y 3.88, I 3.02, N 3.79
I19: N 3.73, T 4.39, D 4.41
D15: I 1.91, V 2.15
E17: C 3.61, A 3.55
R23: C 2.95, K 4.02
L6: Y 3.39, I 3.96, R 4.3
K9: R 2.99, W 4.02, E 4.12
R1: V 3.18, A 3.86
M2: C 3.22, Y 3.57
R10: P 4.44, E 4.84, T 4.24, M 4.06, S 4.05
G13: Q 3.25, D 3.79
P7: K 3.91
R24: H 3.83, E 4.23, K 3.74
E20: L 3.9, I 3.27
A21: I 3.34, W 2.67, C 4.08, G 4.32, F 3.31
R22: I 2.74, H 3.76
V3: F 2.99, T 4.1, I 2.38
M11: V 3.37
F18: V 4.12, D 4.08, C 4.45
A5: W 3.06
A14: Y 2.88, D 4.19

Variants of: B2
Test: as above
Conditions: c terminus: a fixed tail appended

Protein stability index of substitutions, site by site:
K24: H 4.11, L 2.67, S 3.82, D 4.22, I 2.49, F 2.33, M 3, Y 2.79, T 3.68, C 3.36
I22: V 4.4, N 4.5, T 4.51, G 4.48, A 4.42, F 3.88, P 4.67, K 4.32, H 4.78, M 3.51, D 4.63
V19: S 4.47, D 4.74, I 3.84, C 3.93, H 3.87, W 3.19, R 4.21, A 4.34, M 3.88, Y 3.86
D13: T 3.76, K 3.74, H 3.51, E 4.21, G 3.89, W 2.48, Y 2.74, R 3.76, M 3.48, I 3.24, C 3.21, P 3.26, N 3.68
I5: T 4.25, Q 4.8, S 4.3, Y 3.75, G 4.09, N 4.41, H 4.3, K 4.01, E 4.63, D 4.7, P 4.8, M 4.3
C18: E 4.85, R 4.08, P 4.03, Y 3.77, Q 4.28, K 4.32, A 4.01, N 4.5, T 4.42, I 4.23, W 2.77
R1: I 3.16, K 4.05, C 3.93, S 4.56, L 3.51, M 3.66, Y 2.79, T 4.2, Q 4.45, E 4.14
S6: T 3.95, R 3.62, I 3.23, P 4.17, W 2.86, H 4.03, E 3.85, C 3.76, M 3.14, G 4.38, F 2.77, Q 4.26, L 2.97
N14: D 4.04, W 2.65, A 4.25, R 3.71, E 4.53, G 3.83, K 3.65, C 3.72, M 3.6, F 3.06, P 4.3
K8: D 4.45, L 3.33, H 3.94, Q 4.7, G 4.62, E 4.42, A 4.1, V 3.88, F 3.56, P 3.64, S 4.21, Y 3.22, T 4.33, I 3.78
I23: N 4.59, R 4.6, H 4.74, W 3.52, V 3.85, F 4.02, E 4.82
E11: W 2.43, S 3.55, Q 3.57, I 3.24, A 4.04, V 3.16, N 4.04, F 2.71, K 3.7, C 3.69, L 3.41, G 3.57
D15: I 3.29, E 3.94, M 3.62, G 3.67, R 3.45, V 3.68, C 3.09, F 2.87, Q 3.82, Y 3, A 3.8, P 4.1, K 3.79
S17: Y 3.36, L 3.93, A 4.42, C 3.53, W 2.96, R 3.99, M 3.59, D 4.08, G 4.21, I 3.29, E 4.71, V 4.16, F 3.12, P 4.41
T12: I 3.86, D 4.31, C 3.87, Y 3.25, V 4.01, P 4.29, G 4.14, F 3.67, N 4.26, H 4.24, Q 4.18, R 3.95
T10: L 3.38, F 3.1, G 4.01, E 4.26, M 3.98, I 3.74, H 4.52, C 3.8, S 3.88, D 4.1, Y 3.94
V2: I 4.18, H 4.2, R 4.45, P 4.68, S 4.44, N 4.5, Q 4.65, G 3.52, D 4.54, K 4.6, W 3.61, L 4.19, E 4.78
P16: V 3.97, K 4.06, M 3.96, N 3.68, E 4.18, H 3.88, I 3.67, R 3.96, G 4.55, D 4.13, L 3.38, W 2.37, S 4.4, Y 3.13
G9: S 4.21, E 4.23, Y 3.44, L 3.64, N 4.17, T 4.27
P21: D 3.95, W 3.13, Q 3.82, C 2.75, T 3.87, G 4.08, V 3.46, N 3.61, R 4, A 3.72, F 2.73, K 3.84, S 3.89
K3: I 2.81, D 4.48, A 4.38, V 3.29, P 4.55, W 2.56, S 4.33, Y 2.86
H20: V 3.86, L 3.95, K 4.38, F 3.42, C 3.94, P 4.02, S 4.11, E 4.76, I 3.6, Y 3.91, Q 4.61
L4: S 4.61, I 4.19, P 4.82, R 4.25, E 5.13, K 4.43, F 3.9, A 4.57, D 4.18, M 4.13, V 3.86, W 4.24, N 4.48, H 4.27
N7: S 4.22, A 4.02, H 3.79, K 4.31, M 3.36, T 4, Y 3.32, P 4.09, E 4.2, I 3.6
